Source: the supplement of paper PMC11865577

Test system: G-clamp-N3 (biotin conjugate)
Test: pull-down binding Z-score (relative to library population); higher = stronger binding
Settings: RNA library: Library-1 (pre-miRNA loops + repeats)
Outline: (§1)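 To score binding, a beads-only signal was subtracted, barcoded replicate probes were averaged with the highest and lowest dropped, and the value was converted to a Z-score using the library mean and standard deviation. The input was 1 μg of Cy5- or Cy3-end-labelled RNA library, heat-folded in phosphate/NaCl/KCl buffer and mixed for 60 min at 25 °C with streptavidin beads carrying 100 pmol of biotin-conjugated small molecule. Bound RNA was eluted in hot SDS and hybridised to a DNA barcode microarray at 55.5 °C for 20 h.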

Sequence	pull-down binding Z-score
UCUUCCCAAAGUUGAGAAAA [hsa-mir-320d-1]	-1.32
UCUUCCCAGAAUUGGGAAAA [hsa-mir-320c-2]	-0.574
UCUUCCCAGAGUCAGGAAAA [hsa-mir-320c-1]	-1.1
UCUUCCCGGAGUCGGGAAAA [hsa-mir-320a]	1.85
UCUUCUUGGAGUCAGGAAAA [hsa-mir-320d-2]	-0.411
UCUUCUUUUGGAAGGAAGA [hsa-mir-3122]	0.729
UCUUGAAUUUUUGCCAGUUCAAGA [hsa-mir-5197]	0.24
UCUUGGUGCCACCAUUGAGAACGCCAGGA [hsa-mir-492]	-1.02
UCUUUCAUUUUGGAUUUGACU [hsa-mir-766]	-0.725
UCUUUGGUAAUAAGGUUUGGCAAAGA [hsa-mir-576]	1.47
UGAAAGGUUUUUUCUCUCA [hsa-mir-4797]	0.0116
UGAACAGUGAUUGGUUUCCGCUUUGUUCA [hsa-mir-27b]	-0.672
UGAAGAAGAGUAUUGAUUGUGCUGUUCG [hsa-mir-6788]	0.592
UGAAGCCCCGAGAUGCCUCACGUCUUCA [hsa-mir-6802]	-1.85
UGAAGGUCACCAUGUUCUCCUUG [hsa-mir-3187]	-0.816
UGAAUAUGUAAUAUAAGUGUAUUG [hsa-mir-450b]	0.397
UGAAUUGAAAUGCGUUACAUUCA [hsa-mir-95]	-0.13
UGACUACUUCGAAAAUGGGAAGUAGACA [hsa-mir-7849]	3.04
UGACUCAGAUCU [hsa-mir-759]	-1.38
UGAGACCUGGUGCAGAACGGGAAGGCGA [hsa-mir-551b]	1.4

Sequence	pull-down binding Z-score
UGAGCAGGCCCAGAACCCAGCUCGUGCUCA [hsa-mir-6794]	0.169
UGAGCAGGGUCCACACCAAGUCGUGUUCA [hsa-mir-27a]	-0.575
UGAGCAUUCUAGCAGCAGUUUGAUGAUCA [hsa-mir-6516]	-0.0961
UGAGCAUUUUUACUGAAUUGCCA [hsa-mir-6715a]	0.49
UGAGCUGUGAUGUUGCUCUCGAGCUGG [hsa-mir-769]	-0.872
UGAGGAGCUUAGCAAGUAGCUAAGGCCAGA [hsa-mir-4517]	0.384
UGAGGAGUAGAACACUCCUUA [hsa-mir-491]	0.0146
UGAGGUACUUCCUUC [hsa-mir-1205]	-0.28
UGAGGUUUACUAUGGAACCUCA [hsa-mir-4465]	0.714
UGAGUACAUUAUUUAUGAUUAAUCA [hsa-mir-376a-1]	-1.62
UGAGUGAUGACUCAGGCGACUCCA [hsa-mir-338]	1.31
UGAGUGCCGACUGGCGCCUG [hsa-mir-4750]	-0.352
UGAGUGCUAUUUCAGUGCAACA [hsa-mir-362]	-0.0128
UGAGUGGCAUAAUCAGAGUACAAUUUGAGUCAUGCCCAUACAUCA [hsa-mir-23c]	-1.1
UGAGUUUA [hsa-mir-451a]	-1.09
UGAUCAUUAUAUGUAUGAUGAGAUCAU [hsa-mir-4528]	1.33
UGAUUUGUGACUUAAGAUUAAAAUCA [hsa-mir-23b]	-0.478
UGCAAAUGCAAAGUUGGCUUUUGCA [hsa-mir-3680-2_3680-1]	1.8
UGCACCACUCUCCCUGUGAUGAGGUGAA [hsa-mir-4786]	-0.896
UGCACCAGUUCUGGCCGCUGGUGGA [hsa-mir-4683]	-0.459

Sequence	pull-down binding Z-score
UGCAGAUGUGGACUGCUAAAUGCA [hsa-mir-1253]	-0.572
UGCAGUAUCCGCUGUUGCUGCU [hsa-mir-6132]	-1.39
UGCAGUGAGCAACCUACACAACUGCA [hsa-mir-5589]	-0.716
UGCAGUGCUGGGCAUGGGCUUCUCG [hsa-mir-3677]	0.689
UGCAGUUAGUGAAGCAGCUUAGAAUCUACUGCC [hsa-mir-18b]	0.0114
UGCAGUUCUGUUGGGUGACAGCA [hsa-mir-6499]	-0.982
UGCAUAAAUGAAGCUGAAUGA [hsa-mir-6134]	-0.213
UGCCACCCAGCCCUGCAGAGCCCCUGACUC [hsa-mir-6814]	-1.17
UGCCAUACUUUUAACGGCA [hsa-mir-548i-4]	-0.464
UGCCAUUAAAAGUAAUGGCA [hsa-mir-548i-3_548i-2_548i-1]	1.22
UGCCAUUACUCUCAGUGGCA [hsa-mir-548y]	-0.0483
UGCCCUAGCGGCU [hsa-mir-4268]	-0.151
UGCCCUGGGGCCGUCCCUGCGCA [hsa-mir-1909]	-1.26
UGCCUACUACUGAUGACAUACAAUGUAAGUGCUCAUUUAGGCG [hsa-mir-5696]	-0.861
UGCCUCUCGGGGU [hsa-mir-6073]	-0.532
UGCCUUGUAGCAUUCAGGUCAAGCA [hsa-mir-103a-2]	0.0735
UGCGUUAGGAUUUCUGUAUCAUCCUCCUAACGCA [hsa-mir-3166]	0.901
UGCUAUUACUUGUAUUUAUUUGUAAUGCA [hsa-mir-548ab]	-0.547
UGCUAUUAGAAAGUAAUGGCA [hsa-mir-548ba]	0.465

Test system: TO-3-N3 (biotin conjugate)
Test: as above
Settings: RNA library: Library-2
Outline: as §1

Sequence	pull-down binding Z-score
UCUUCCCAAAGUUGAGAAAA [hsa-mir-320d-1]	-0.611
UCUUCCCAGAAUUGGGAAAA [hsa-mir-320c-2]	-0.813
UCUUCCCAGAGUCAGGAAAA [hsa-mir-320c-1]	-0.17
UCUUCCCGGAGUCGGGAAAA [hsa-mir-320a]	-0.0669
UCUUCUUGGAGUCAGGAAAA [hsa-mir-320d-2]	-0.553
UCUUCUUUUGGAAGGAAGA [hsa-mir-3122]	-0.175
UCUUGAAUUUUUGCCAGUUCAAGA [hsa-mir-5197]	-0.956
UCUUGGUGCCACCAUUGAGAACGCCAGGA [hsa-mir-492]	-0.644
UCUUUCAUUUUGGAUUUGACU [hsa-mir-766]	0.116
UCUUUGGUAAUAAGGUUUGGCAAAGA [hsa-mir-576]	1.04
UGAAAGGUUUUUUCUCUCA [hsa-mir-4797]	-0.332
UGAACAGUGAUUGGUUUCCGCUUUGUUCA [hsa-mir-27b]	0.138
UGAAGAAGAGUAUUGAUUGUGCUGUUCG [hsa-mir-6788]	0.425
UGAAGCCCCGAGAUGCCUCACGUCUUCA [hsa-mir-6802]	0.00057
UGAAGGUCACCAUGUUCUCCUUG [hsa-mir-3187]	0.0716
UGAAUAUGUAAUAUAAGUGUAUUG [hsa-mir-450b]	0.214
UGAAUUGAAAUGCGUUACAUUCA [hsa-mir-95]	0.0702
UGACUACUUCGAAAAUGGGAAGUAGACA [hsa-mir-7849]	0.0977
UGACUCAGAUCU [hsa-mir-759]	-0.321
UGAGACCUGGUGCAGAACGGGAAGGCGA [hsa-mir-551b]	0.308

Sequence	pull-down binding Z-score
UGAGCAGGCCCAGAACCCAGCUCGUGCUCA [hsa-mir-6794]	0.387
UGAGCAGGGUCCACACCAAGUCGUGUUCA [hsa-mir-27a]	0.869
UGAGCAUUCUAGCAGCAGUUUGAUGAUCA [hsa-mir-6516]	-0.57
UGAGCAUUUUUACUGAAUUGCCA [hsa-mir-6715a]	-0.582
UGAGCUGUGAUGUUGCUCUCGAGCUGG [hsa-mir-769]	0.732
UGAGGAGCUUAGCAAGUAGCUAAGGCCAGA [hsa-mir-4517]	-0.194
UGAGGAGUAGAACACUCCUUA [hsa-mir-491]	-0.282
UGAGGUACUUCCUUC [hsa-mir-1205]	0.111
UGAGGUUUACUAUGGAACCUCA [hsa-mir-4465]	-0.566
UGAGUACAUUAUUUAUGAUUAAUCA [hsa-mir-376a-1]	-0.874
UGAGUGAUGACUCAGGCGACUCCA [hsa-mir-338]	-0.345
UGAGUGCCGACUGGCGCCUG [hsa-mir-4750]	-0.164
UGAGUGCUAUUUCAGUGCAACA [hsa-mir-362]	0.967
UGAGUGGCAUAAUCAGAGUACAAUUUGAGUCAUGCCCAUACAUCA [hsa-mir-23c]	-0.338
UGAGUUUA [hsa-mir-451a]	-0.287
UGAUCAUUAUAUGUAUGAUGAGAUCAU [hsa-mir-4528]	-0.532
UGAUUUGUGACUUAAGAUUAAAAUCA [hsa-mir-23b]	-0.415
UGCAAAUGCAAAGUUGGCUUUUGCA [hsa-mir-3680-2_3680-1]	-0.669
UGCACCACUCUCCCUGUGAUGAGGUGAA [hsa-mir-4786]	-0.535
UGCACCAGUUCUGGCCGCUGGUGGA [hsa-mir-4683]	-0.16

Sequence	pull-down binding Z-score
UGCAGAUGUGGACUGCUAAAUGCA [hsa-mir-1253]	-0.411
UGCAGUAUCCGCUGUUGCUGCU [hsa-mir-6132]	-0.329
UGCAGUGAGCAACCUACACAACUGCA [hsa-mir-5589]	-0.0632
UGCAGUGCUGGGCAUGGGCUUCUCG [hsa-mir-3677]	1.07
UGCAGUUAGUGAAGCAGCUUAGAAUCUACUGCC [hsa-mir-18b]	0.192
UGCAGUUCUGUUGGGUGACAGCA [hsa-mir-6499]	0.239
UGCAUAAAUGAAGCUGAAUGA [hsa-mir-6134]	-0.352
UGCCACCCAGCCCUGCAGAGCCCCUGACUC [hsa-mir-6814]	0.562
UGCCAUACUUUUAACGGCA [hsa-mir-548i-4]	-0.727
UGCCAUUAAAAGUAAUGGCA [hsa-mir-548i-3_548i-2_548i-1]	0.489
UGCCAUUACUCUCAGUGGCA [hsa-mir-548y]	-0.836
UGCCCUAGCGGCU [hsa-mir-4268]	-0.212
UGCCCUGGGGCCGUCCCUGCGCA [hsa-mir-1909]	0.425
UGCCUACUACUGAUGACAUACAAUGUAAGUGCUCAUUUAGGCG [hsa-mir-5696]	-0.702
UGCCUCUCGGGGU [hsa-mir-6073]	0.000863
UGCCUUGUAGCAUUCAGGUCAAGCA [hsa-mir-103a-2]	-0.594
UGCGUUAGGAUUUCUGUAUCAUCCUCCUAACGCA [hsa-mir-3166]	0.576
UGCUAUUACUUGUAUUUAUUUGUAAUGCA [hsa-mir-548ab]	-0.524
UGCUAUUAGAAAGUAAUGGCA [hsa-mir-548ba]	0.757

Test system: TO-3-N3-2 (biotin conjugate)
Test: as above
Settings: RNA library: Library-2
Outline: as §1

Sequence	pull-down binding Z-score
UCUUCCCAAAGUUGAGAAAA [hsa-mir-320d-1]	-0.407
UCUUCCCAGAAUUGGGAAAA [hsa-mir-320c-2]	-0.72
UCUUCCCAGAGUCAGGAAAA [hsa-mir-320c-1]	-0.0416
UCUUCCCGGAGUCGGGAAAA [hsa-mir-320a]	-0.307
UCUUCUUGGAGUCAGGAAAA [hsa-mir-320d-2]	-0.458
UCUUCUUUUGGAAGGAAGA [hsa-mir-3122]	-0.532
UCUUGAAUUUUUGCCAGUUCAAGA [hsa-mir-5197]	-0.517
UCUUGGUGCCACCAUUGAGAACGCCAGGA [hsa-mir-492]	-0.506
UCUUUCAUUUUGGAUUUGACU [hsa-mir-766]	-0.03
UCUUUGGUAAUAAGGUUUGGCAAAGA [hsa-mir-576]	0.625
UGAAAGGUUUUUUCUCUCA [hsa-mir-4797]	-0.248
UGAACAGUGAUUGGUUUCCGCUUUGUUCA [hsa-mir-27b]	0.275
UGAAGAAGAGUAUUGAUUGUGCUGUUCG [hsa-mir-6788]	-0.00107
UGAAGCCCCGAGAUGCCUCACGUCUUCA [hsa-mir-6802]	-0.123
UGAAGGUCACCAUGUUCUCCUUG [hsa-mir-3187]	-0.354
UGAAUAUGUAAUAUAAGUGUAUUG [hsa-mir-450b]	0.32
UGAAUUGAAAUGCGUUACAUUCA [hsa-mir-95]	-0.0666
UGACUACUUCGAAAAUGGGAAGUAGACA [hsa-mir-7849]	-0.277
UGACUCAGAUCU [hsa-mir-759]	-0.249
UGAGACCUGGUGCAGAACGGGAAGGCGA [hsa-mir-551b]	0.479
UGAGCAGGCCCAGAACCCAGCUCGUGCUCA [hsa-mir-6794]	-0.114
UGAGCAGGGUCCACACCAAGUCGUGUUCA [hsa-mir-27a]	0.465
UGAGCAUUCUAGCAGCAGUUUGAUGAUCA [hsa-mir-6516]	-0.419
UGAGCAUUUUUACUGAAUUGCCA [hsa-mir-6715a]	-0.268
UGAGCUGUGAUGUUGCUCUCGAGCUGG [hsa-mir-769]	0.336
UGAGGAGCUUAGCAAGUAGCUAAGGCCAGA [hsa-mir-4517]	-0.393
UGAGGAGUAGAACACUCCUUA [hsa-mir-491]	-0.448
UGAGGUACUUCCUUC [hsa-mir-1205]	-0.247
UGAGGUUUACUAUGGAACCUCA [hsa-mir-4465]	-0.526
